Measured values as given in the supplement of paper PMC11246515.
± gives the standard deviation of the averaged measurements.

Test: total protein half-life in vivo (active degradation + dilution); higher = more stable protein
[1] = E. coli NCM3722 delta-clpP delta-lon delta-hslV, growth: N-lim chemostat, doubling time 6 h
[2] = E. coli NCM3722 delta-clpP, growth: N-lim chemostat, doubling time 6 h
[3] = E. coli NCM3722 delta-hslV, growth: N-lim chemostat, doubling time 6 h
[4] = E. coli NCM3722 delta-lon, growth: N-lim chemostat, doubling time 6 h
[5] = E. coli NCM3722 delta-smpB, growth: N-lim chemostat, doubling time 6 h
[6] = wild type E. coli NCM3722, growth: C-lim chemostat, doubling time 3 h
[7] = wild type E. coli NCM3722, growth: C-lim chemostat, doubling time 6 h
[8] = wild type E. coli NCM3722, growth: C-lim chemostat, doubling time 12 h
[9] = wild type E. coli NCM3722, growth: N-lim chemostat, doubling time 6 h
[10] = wild type E. coli NCM3722, growth: N-lim chemostat, doubling time 12 h
[11] = wild type E. coli NCM3722, growth: P-lim chemostat, doubling time 6 h
[12] = wild type E. coli NCM3722, growth: P-lim chemostat, doubling time 12 h

Sequence	total protein half-life in vivo [1] [h]	total protein half-life in vivo [2] [h]	total protein half-life in vivo [3] [h]	total protein half-life in vivo [4] [h]	total protein half-life in vivo [5] [h]	total protein half-life in vivo [6] [h]	total protein half-life in vivo [7] [h]	total protein half-life in vivo [8] [h]	total protein half-life in vivo [9] [h]	total protein half-life in vivo [10] [h]	total protein half-life in vivo [11] [h]	total protein half-life in vivo [12] [h]
MQCALYDAGRCRSCQWIMQPIPEQLSAKTADLKNLLADFPVEEWCAPVSGPEQGFRNKAKMVVSGSVEKPLLGMLHRDGTPEDLCDCPLYPASFAPVFAALKPFIARAGLTPYNVARKRGELKYILLTESQSDGGMMLRFVLRSDTKLAQLRKALPWLHEQLPQLKVITVNIQPVHMAIMEGETEIYLTEQQALAERFNDVPLWIRPQSFFQTNPAVASQLYATARDWVRQLPVKHMWDLFCGVGGFGLHCATPDMQLTGIEIASEAIACAKQSAAELGLTRLQFQALDSTQFATAQGDVPELVLVNPPRRGIGKPLCDYLSTMAPRFIIYSSCNAQTMAKDIRELPGFRIERVQLFDMFPHTAHYEVLTLLVKQ	5.35 ± 0.065	3.16	4.89 ± 0.31	5.02 ± 0.69	4.32 ± 0.3	3.6	5.35 ± 0.8	> 16	5.51	10.8 ± 1.5	5.7 ± 0.55	11.9 ± 1.2
MQVKTQSCVVAGKKTVAVTEQTIDWNNNGTLVQITRGGICGSDLHYYQEGKVGNFMIKAPMVLGHEVIGKVIHSDSSELHEGQTVAINPSKPCGHCKYCIEHNENQCTDMRFFGSAMYFPHVDGGFTRYKMVETSQCVPYPAKADEKVMAFAEPLAVAIHAAHQAGELQGKRVFISGVGPIGCLIVSAVKTLGAAEIVCADVSPRSLSLGKEMGADVLVNPQNDDMDHWKAEKGYFDVSFEVSGHPSSVNTCLEVTRARGVMVQVGMGGAMAEFPMMTLIGKEISLRGSFRFTSEFNTAVSWLANGVINPLPLLSAEYPFTDLEEALRFAGDKTQAAKVQLVF						1.348 ± 0.0073	2.71	5.81				
MSNPILSWRRVRALCVKETRQIVRDPSSWLIAVVIPLLLLFIFGYGINLDSSKLRVGILLEQRSEAALDFTHTMTGSPYIDATISDNRQELIAKMQAGKIRGLVVIPVDFAEQMERANATAPIQVITDGSEPNTANFVQGYVEGIWQIWQMQRAEDNGQTFEPLIDVQTRYWFNPAAISQHFIIPGAVTIIMTVIGAILTSLVVAREWERGTMEALLSTEITRTELLLCKLIPYYFLGMLAMLLCMLVSVFILGVPYRGSLLILFFISSLFLLSTLGMGLLISTITRNQFNAAQVALNAAFLPSIMLSGFIFQIDSMPAVIRAVTYIIPARYFVSTLQSLFLAGNIPVVLVVNVLFLIASAVMFIGLTWLKTKRRLD [P0AFQ2]	6.67 ± 0.81	5.62	6.1	5.56	6.04 ± 0.15		5.36	12.8	6.36 ± 0.5	12.5 ± 3.1		12.6 ± 0.43
MKQPAPVYQRIAGHQWRHIWLSGDIHGCLEQLRRKLWHCRFDPWRDLLISVGDVIDRGPQSLRCLQLLEQHWVCAVRGNHEQMAMDALASQQMSLWLMNGGDWFIALADNQQKQAKTALEKCQHLPFILEVHSRTGKHVIAHADYPDDVYEWQKDVDLHQVLWSRSRLGERQKGQGITGADHFWFGHTPLRHRVDIGNLHYIDTGAVFGGELTLVQLQ												5.48
MNALTAVQNNAVDSGQDYSGFTLTPSAQSPRLLELTFTEQTTKQFLEQVAEWPVQALEYKSFLRFRVAKILDDLCANQLQPLLLKTLLNRAEGALLINAVGVDDVKQADEMVKLATAVAHLIGRSNFDAMSGQYYARFVVKNVDNSDSYLRQPHRVMELHNDGTYVEEITDYVLMMKIDEQNMQGGNSLLLHLDDWEHLDNYFRHPLARRPMRFAAPPSKNVSKDVFHPVFDVDQQGRPVMRYIDQFVQPKDFEEGVWLSELSDAIETSKGILSVPVPVGKFLLINNLFWLHGRDRFTPHPDLRRELMRQRGYFAYASNHYQTHQ	5.49 ± 0.24	1.73 ± 0.11				0.794 ± 0.23	1.18 ± 0.23	0.791 ± 0.35	1.3	1.1 ± 0.12		1.17 ± 0.72
MNKETQPIDRETLLKEANKIIREHEDTLAGIEATGVTQRNGVLVFTGDYFLDEQGLPTAKSTAVFNMFKHLAHVLSEKYHLVD [P0AB61]	5.24 ± 0.27	3.59	3.12 ± 0.036	3.65 ± 0.14	2.91 ± 0.23	2.64	4.89 ± 0.3	9.62 ± 3.9	2.5 ± 0.063	4.72	6.02	
MADKELKFLVVDDFSTMRRIVRNLLKELGFNNVEEAEDGVDALNKLQAGGYGFVISDWNMPNMDGLELLKTIRADGAMSALPVLMVTAEAKKENIIAAAQAGASGYVVKPFTAATLEEKLNKIFEKLGM [P0AE67]	4.52 ± 0.43	4.01	3.69 ± 0.95	5.08 ± 0.6	4.41	2.33 ± 0.22	4.08 ± 0.41	5.96 ± 0.14	3.82 ± 0.84	5.61 ± 0.14	3.91	6.33 ± 0.44
MHLSTHPTSYPTRYQEIAAKLEQELRQHYRCGDYLPAEQQLAARFEVNRHTLRRAIDQLVEKGWVQRRQGVGVLVLMRPFDYPLNAQARFSQNLLDQGSHPTSEKLLSVLRPASGHVADALGITEGENVIHLRTLRRVNGVALCLIDHYFADLTLWPTLQRFDSGSLHDFLREQTGIALRRSQTRISARRAQAKECQRLEIPNMSPLLCVRTLNHRDGESSPAEYSVSLTRADMIEFTMEH							6.73				0.458 ± 0.023	1.54 ± 0.86
MKISPSLMCMDLLKFKEQIEFIDSHADYFHIDIMDGHFVPNLTLSPFFVSQVKKLATKPLDCHLMVTRPQDYIAQLARAGADFITLHPETINGQAFRLIDEIRRHDMKVGLILNPETPVEAMKYYIHKADKITVMTVDPGFAGQPFIPEMLDKLAELKAWREREGLEYEIEVDGSCNQATYEKLMAAGADVFIVGTSGLFNHAENIDEAWRIMTAQILAAKSEVQPHAKTA						0.597						
MDIVFIEQLSVITTIGVYDWEQTIEQKLVFDIEMAWDNRKAAKSDDVADCLSYADIAETVVSHVEGARFALVERVAEEVAELLLARFNSPWVRIKLSKPGAVARAANVGVIIERGNNLKENN [P0AC16]	5.71 ± 0.35	5.86	5.4 ± 0.43	5.47 ± 0.74		3.26 ± 0.37	6.02 ± 0.37	11.8 ± 1.3	5.39 ± 0.56	10.7 ± 2.2	6.4 ± 0.65	12.39 ± 0.043
MSHSSAPERATGAVITDWRPEDPAFWQQRGQRIASRNLWISVPCLLLAFCVWMLFSAVAVNLPKVGFNFTTDQLFMLTALPSVSGALLRVPYSFMVPIFGGRRWTAFSTGILIIPCVWLGFAVQDTSTPYSVFIIISLLCGFAGANFASSMANISFFFPKQKQGGALGLNGGLGNMGVSVMQLVAPLVVSLSIFAVFGSQGVKQPDGTELYLANASWIWVPFLAIFTIAAWFGMNDLATSKASIKEQLPVLKRGHLWIMSLLYLATFGSFIGFSAGFAMLSKTQFPDVQILQYAFFGPFIGALARSAGGALSDRLGGTRVTLVNFILMAIFSGLLFLTLPTDGQGGSFMAFFAVFLALFLTAGLGSGSTFQMISVIFRKLTMDRVKAEGGSDERAMREAATDTAAALGFISAIGAIGGFFIPKAFGSSLALTGSPVGAMKVFLIFYIACVVITWAVYGRHSKK										8.46		
MLSGKDLGRAIEQAINKKIASGSVKSKAEVARHFKVQPPSIYDWIKKGSISKDKLPELWRFFSDVVGPEHWGLNEYPIPTPTNSDTKSELLDINNLYQAASDEIRAIVAFLLSGNATEPDWVDHDVRAYIAAMEMKVGKYLKALESERKSQNITKTGT		4.75	5.53 ± 0.81	7.1	5.32		5.48	9.89	4.71	8.69	5.35	10.4 ± 2
MDVRQSIHSAHAKTLDTQGLRNEFLVEKVFVADEYTMVYSHIDRIIVGGIMPITKTVSVGGEVGKQLGVSYFLERRELGVINIGGAGTITVDGQCYEIGHRDALYVGKGAKEVVFASIDTGTPAKFYYNCAPAHTTYPTKKVTPDEVSPVTLGDNLTSNRRTINKYFVPDVLETCQLSMGLTELAPGNLWNTMPCHTHERRMEVYFYFNMDDDACVFHMMGQPQETRHIVMHNEQAVISPSWSIHSGVGTKAYTFIWGMVGENQVFDDMDHVAVKDLR	5.44 ± 1.1	3.55	3.6 ± 0.5	3.28 ± 0.7	3.71 ± 0.51	3.43 ± 0.61	6.02 ± 0.23	10.2 ± 0.68	4.18	5.64 ± 0.57	5.56	11.6 ± 0.6
MARKTKQEAQETRQHILDVALRLFSQQGVSSTSLGEIAKAAGVTRGAIYWHFKDKSDLFSEIWELSESNIGELELEYQAKFPGDPLSVLREILIHVLESTVTEERRRLLMEIIFHKCEFVGEMAVVQQAQRNLCLESYDRIEQTLKHCIEAKMLPADLMTRRAAIIMRGYISGLMENWLFAPQSFDLKKEARDYVAILLEMYLLCPTLRNPATNE [P0ACS9]	5.34 ± 0.52		6.2	5.24	5.82 ± 1.9		5.61	10.8 ± 0.63	5.74	11.6	4.88	7.48
